Results from article PMC4957051, “Molecular Mechanism of Z α1-Antitrypsin Deficiency*” (The Journal of Biological Chemistry, 2016).
Changes are numbered by the printed parent chain. Names and notes keep the numbering of the source.

B1: α1-AT-S292C-T339C-E342A, reduced form (natural protein, human, UniProt P01009 25-418, looked up)
chain: EDPQGDAAQKTDTSHHDQDHPTFNKITPNLAEFAFSLYRQLAHQSNSTNIFFSPVSIATAFAMLSLGTKADTHDEILEGLNFNLTEIPEAQIHEGFQELLRTLNQPDSQLQLTTGNGLFLSEGLKLVDKFLEDVKKLYHSEAFTVNFGDTEEAKKQINDYVEKGTQGKIVDLVKELDRDTVFALVNYIFFKGKWERPFEVKDTEEEDFHVDQVTTVKVPMMKRLGMFNIQHSKKLSSWVLLMKYLGNATAIFFLPDEGKLQHLENELTHDIITKFLENEDRRSASLHLPKLCITGTYDLKSVLGQLGITKVFSNGADLSGVTEEAPLKLSKAVHKAVLCIDAKGTEAAGAMFLEAIPRSIPPEVKFNKPFVFLMIEQNTKSPLFMGKVVNPTQK
notes: α1-antitrypsin (α1-AT), human cDNA in pQE31, Pittsburgh backbone (M358R and C232S) with S292C, T339C and E342A; Same chain as m6, with the engineered disulfide reduced; also called α1-AT-SS-E342A (reduced); source: E. coli, purified; reduced form prepared
B2: α1-AT E342A (Pittsburgh backbone) (natural protein, human, UniProt P01009 25-418, looked up)
chain: B1 chain with C292S, C339T
notes: α1-antitrypsin (α1-AT), human cDNA in pQE31, Pittsburgh backbone (M358R and C232S) with E342A; also called E342A mutant; source: E. coli, purified from the soluble fraction of the lysate

Legend:
activated factor X (FXa) = experiment: rates and stoichiometries of protease inhibition; as described previously (ref. 48); each value the average of three independent measurements
thrombin = experiment: as above
[1] = target: T1, recombinant wild type α1-antitrypsin (α1-AT Pittsburgh backbone, M358R and C232S) (human, UniProt P01009 25-418, M358R | C232S); experiment: native gel or EMSA; peptide annealing: α1-AT variants (0.5 mg/ml) incubated with 100-fold molar excess of 6-mer peptide at 37 °C for different time intervals, then 8% native gel with 7 M urea; the binary complex resists urea; settings: both partners purified
T1 construct: α1-antitrypsin (α1-AT), human cDNA in pQE31, Pittsburgh backbone (M358R and C232S); probably the mature protein behind the tag; also called Wt; WT; source: E. coli, purified from the soluble fraction of the lysate

[2] = target: T2, α1-AT E342C (Pittsburgh backbone) (human, UniProt P01009 25-418, M358R | C232S | E342C); experiment: as above; settings: both partners purified
T2 construct: α1-antitrypsin (α1-AT), human cDNA in pQE31, Pittsburgh backbone (M358R and C232S) with E342C; also called E342C mutant; source: E. coli, purified from the soluble fraction of the lysate

[3] = target: B2; experiment: as above; settings: both partners purified
[4] = target: T3, α1-AT-S292C-T339C-E342A, oxidized form (disulfide between s5A and s6A) (human, UniProt P01009 25-418, M358R | C232S | S292C | T339C | E342A, disulfide bond linking s5A and s6A (Cys-292 and Cys-339)); experiment: as above; settings: both partners purified
T3 construct: α1-antitrypsin (α1-AT), human cDNA in pQE31, Pittsburgh backbone (M358R and C232S) with S292C, T339C and E342A; Same chain as m7, with the engineered disulfide formed; also called α1-AT-SS-E342A (oxidized); source: E. coli, purified; oxidized form prepared

[5] = target: B1; experiment: as above; settings: both partners purified
[6] = target: the molecule itself; experiment: native gel or EMSA; thermal stability: α1-AT variants incubated at various temperatures in 10 mM Tris-HCl, pH 7.4, 0.1 M NaCl, 0.5 M urea for 30 min, then native gel

Row | Molecule | SI (stoichiometry of inhibition) (activated factor X (FXa)) | SI (stoichiometry of inhibition) (thrombin) | binding result [6] | also measured
1 | α1-AT E342C (Pittsburgh backbone) (from UniProt P01009 25-418) (natural protein) | 3 | 3 |  | 
2 | α1-AT E342C-mod (E342C with Cys-342 chemically converted to a lysine-like residue) (from UniProt P01009 25-418) (natural protein) | 3.4 | 3.4 |  | 
3 | recombinant wild type α1-antitrypsin (α1-AT Pittsburgh backbone, M358R and C232S) (from UniProt P01009 25-418) (natural protein) |  | 1.6 |  | 
4 | FLEAIG [6-mer peptide (FLEAIG) derived from the P7 to P2 sequence of the α1-AT reactive loop] |  |  |  | binding result [1]: binds; binding result [2]: binds; binding result [3]: binds; binding result [4]: binds; binding result [5]: binds
5 | B1 |  |  | binds | 
6 | B2 |  |  | binds | 
